Laboratory results reported in patent publication US20200040101A1 (ASKGENE PHARMA, published 2020).
Residue numbers refer to the chain shown, from its start.

B1: ASK589-B (antibody, human IgG1, kappa, V domains shown)
VH: EVQLVESGGGLVKPGGSLRLSCAVSGFYFNRGYWICWVRQAPGKGLEWIGCIDTGSGVPYYANWAKGRFTISRHTSKTTLTLQMNSLRAEDTASYFCARNSDSIYFNIWGPGTLVTVSS
VL: DIVMTQSPSSLSASVGDRVTITCQASQSIGGYISWYQQKPGKAPKLLIYKASTLASGVPSRFSGSGSGTDFTLTISSLQPEDFATYYCQNYAGVSIYGAVFGGGTKVVIKR
notes: Humanized rabbit antibody (from Clone 46; HC5M1 with LC1M1); also called Molecule B
B2: 30B5 (mouse hybridoma subclone antibody) (antibody, V domains shown)
VH: EVKLEESGGGLVQPGGSMKLSCVASGFTFSNYWMNWVRQSPEKGLEWVAEIRLKSKNYATHYAESVKGRFTISRDDSIGSVYLQMNNLRAEDTGIYYCARGHYGTNYGDYWGQGTSVTVSS
VL: DIVMTQSPSSLTVTAGEKVTVSCKSSQSLFNSGNQKHYLTWYQQKPGQPPKLLIYRASTRESGVPDRFTGSGSGTDFTLTIRNVQAEDLAVYYCQNDYSFPLTFGAGTKLELK
notes: also remade as chimeric antibody with human IgG1 and kappa
B3: 85H12 (mouse hybridoma subclone antibody) (antibody, V domains shown)
VH: B2 VH
VL: B2 VL
notes: as for B2
B4: 79C4 (mouse hybridoma subclone antibody) (antibody, V domains shown)
VH: B2 VH
VL: DIQTTQSPSSLSASLGERVTLTCRASQEISGYLSWLQQKPDGTIKRLIYAASTLDSGVPKRFSGSRSGSDYSLTINSLESEDFVDYYCLQYDSSPWTFGGGTKLEIK
notes: also remade as chimeric antibody with human IgG1 and kappa (pFUSE vectors)
B5: 83G3 (mouse hybridoma subclone antibody) (antibody, V domains shown)
VH: QVQLQQSGAELAKPGASVKLSCKASGFTFTSYWIHWVKQRPGQGLEWIGYIDPSNTYTKFNQKFKDKATLTADKSSSTAYMQLNSLTFEDSAVYYCATGRGFAYWGQGTLVTVSS
VL: B2 VL
notes: as for B2
B6: M5 (mutated version of M1) (antibody, V domains shown)
VH: QVQLVQSGAEVKKPGASVKVSCKASGYTFTSYVINWVRQATGQGLEWIGEIHPRGGNTYYSEKFRGRVTLTADTSISTAYMELSSLRSEDTAVYYCARLRRGNAMDYWDQGTTVTVSS
VL: DIVMTQSPSSLAVSLGEMATINCKSSQSLLNSGNQRNYLTWYQQKPGQPPKLLIYWASTRESGVPDRFSGSGSGTDFTLTISSLQAEDVAVYYCQNSYNYPYTFGQGTKLERK
notes: Humanized mouse antibody from 11E12 (hu11E12VHv1B with hu11E12VLv1); also called ASK-M5_DS; Molecule M5
B7: ASK589-M1 (antibody, V domains shown)
VH: B6 VH with R98I
VL: B6 VL
notes: Humanized mouse antibody from 11E12 (hu11E12VHv1 with hu11E12VLv1); also called Molecule M1; M1_DS

Legend:
Claudin-1 = biological target: T1, Claudin-1; assay: FACS, transfected HEK 293 cells
T1 construct: expressed on transiently transfected HEK 293 cells

Claudin-2 = biological target: T2, Claudin-2; assay: FACS, transfected HEK 293 cells
T2 construct: expressed on transiently transfected HEK 293 cells; the sheet prints only the number after Claudin-1
T2 sequence (P57739 whole entry, species assumed, looked up): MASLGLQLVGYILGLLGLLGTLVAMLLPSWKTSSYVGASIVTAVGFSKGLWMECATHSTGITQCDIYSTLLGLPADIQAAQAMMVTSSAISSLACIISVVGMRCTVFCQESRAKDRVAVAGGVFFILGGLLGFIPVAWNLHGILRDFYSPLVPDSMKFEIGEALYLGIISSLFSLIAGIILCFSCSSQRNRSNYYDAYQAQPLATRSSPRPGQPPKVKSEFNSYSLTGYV

Claudin-3 = biological target: T3, Claudin-3; assay: FACS, transfected HEK 293 cells
T3 construct: expressed on transiently transfected HEK 293 cells; the sheet prints only the number after Claudin-1

Claudin-4 = biological target: T4, Claudin-4; assay: FACS, transfected HEK 293 cells
T4 construct: expressed on transiently transfected HEK 293 cells; the sheet prints only the number after Claudin-1

Claudin-5 = biological target: T5, Claudin-5; assay: FACS, transfected HEK 293 cells
T5 construct: expressed on transiently transfected HEK 293 cells; the sheet prints only the number after Claudin-1
T5 sequence (O00501 whole entry, species assumed, looked up): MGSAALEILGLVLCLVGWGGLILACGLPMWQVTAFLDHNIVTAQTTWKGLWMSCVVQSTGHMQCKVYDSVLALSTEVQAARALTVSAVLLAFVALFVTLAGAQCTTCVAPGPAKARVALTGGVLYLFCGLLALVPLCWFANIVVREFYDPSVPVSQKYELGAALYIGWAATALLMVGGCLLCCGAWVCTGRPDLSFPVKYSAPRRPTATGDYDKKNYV

Claudin-8 = biological target: T6, Claudin-8; assay: FACS, transfected HEK 293 cells
T6 construct: expressed on transiently transfected HEK 293 cells; the sheet prints only the number after Claudin-1

Claudin-9 = biological target: T7, Claudin-9; assay: FACS, transfected HEK 293 cells
T7 construct: expressed on transiently transfected HEK 293 cells; the sheet prints only the number after Claudin-1

Claudin-10 = biological target: T8, Claudin-10; assay: FACS, transfected HEK 293 cells
T8 construct: expressed on transiently transfected HEK 293 cells; the sheet prints only the number after Claudin-1
T8 sequence (P78369 1-228, species assumed, looked up): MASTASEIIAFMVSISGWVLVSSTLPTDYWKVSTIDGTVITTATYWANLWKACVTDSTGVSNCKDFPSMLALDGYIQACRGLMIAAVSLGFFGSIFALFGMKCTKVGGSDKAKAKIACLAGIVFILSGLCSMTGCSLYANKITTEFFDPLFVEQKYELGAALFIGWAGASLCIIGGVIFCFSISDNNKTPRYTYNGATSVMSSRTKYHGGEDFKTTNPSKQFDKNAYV

Claudin-11 = biological target: T9, Claudin-11; assay: FACS, transfected HEK 293 cells
T9 construct: expressed on transiently transfected HEK 293 cells; the sheet prints only the number after Claudin-1
T9 sequence (O75508 whole entry, species assumed, looked up): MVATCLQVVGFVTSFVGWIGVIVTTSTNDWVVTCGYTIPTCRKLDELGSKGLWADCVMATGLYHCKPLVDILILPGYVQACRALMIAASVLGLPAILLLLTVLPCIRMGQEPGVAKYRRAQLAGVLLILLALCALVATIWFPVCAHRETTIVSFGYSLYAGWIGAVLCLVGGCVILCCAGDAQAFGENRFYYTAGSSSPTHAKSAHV

Claudin-12 = biological target: T10, Claudin-12; assay: FACS, transfected HEK 293 cells
T10 construct: expressed on transiently transfected HEK 293 cells; the sheet prints only the number after Claudin-1

Claudin-14 = biological target: T11, Claudin-14; assay: FACS, transfected HEK 293 cells
T11 construct: expressed on transiently transfected HEK 293 cells; the sheet prints only the number after Claudin-1

Claudin-16 = biological target: T12, Claudin-16; assay: FACS, transfected HEK 293 cells
T12 construct: expressed on transiently transfected HEK 293 cells; the sheet prints only the number after Claudin-1
T12 sequence (Q9Y5I7 1-235, species assumed, looked up): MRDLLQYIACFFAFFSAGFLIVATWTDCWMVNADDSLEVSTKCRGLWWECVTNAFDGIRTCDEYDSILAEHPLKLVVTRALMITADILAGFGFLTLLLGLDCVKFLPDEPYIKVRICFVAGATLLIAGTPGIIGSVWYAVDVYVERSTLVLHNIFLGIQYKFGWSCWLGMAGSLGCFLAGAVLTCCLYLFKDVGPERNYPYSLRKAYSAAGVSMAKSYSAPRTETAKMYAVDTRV

Claudin-17 = biological target: T13, Claudin-17; assay: FACS, transfected HEK 293 cells
T13 construct: expressed on transiently transfected HEK 293 cells; the sheet prints only the number after Claudin-1
T13 sequence (P56750 whole entry, species assumed, looked up): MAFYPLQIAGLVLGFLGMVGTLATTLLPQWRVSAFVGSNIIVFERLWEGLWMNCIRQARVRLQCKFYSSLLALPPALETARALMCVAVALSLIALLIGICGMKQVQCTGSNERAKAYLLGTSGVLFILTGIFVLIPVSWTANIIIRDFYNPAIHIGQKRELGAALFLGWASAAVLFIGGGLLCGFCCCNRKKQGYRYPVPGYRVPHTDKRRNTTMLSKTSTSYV

Claudin-19 = biological target: T14, Claudin-19; assay: FACS, transfected HEK 293 cells
T14 construct: expressed on transiently transfected HEK 293 cells; the sheet prints only the number after Claudin-1
T14 sequence (Q8N6F1 whole entry, species assumed, looked up): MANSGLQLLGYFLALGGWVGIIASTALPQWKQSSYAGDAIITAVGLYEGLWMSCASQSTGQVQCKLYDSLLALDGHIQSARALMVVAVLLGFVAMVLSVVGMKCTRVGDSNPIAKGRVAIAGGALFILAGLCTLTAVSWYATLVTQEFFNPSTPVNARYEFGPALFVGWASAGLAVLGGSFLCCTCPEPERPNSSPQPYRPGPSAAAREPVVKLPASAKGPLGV

Claudin-22 = biological target: T15, Claudin-22; assay: FACS, transfected HEK 293 cells
T15 construct: expressed on transiently transfected HEK 293 cells; the sheet prints only the number after Claudin-1

Claudin-23 = biological target: T16, Claudin-23; assay: FACS, transfected HEK 293 cells
T16 construct: expressed on transiently transfected HEK 293 cells; the sheet prints only the number after Claudin-1
T16 sequence (Q96B33 1-292, species assumed, looked up): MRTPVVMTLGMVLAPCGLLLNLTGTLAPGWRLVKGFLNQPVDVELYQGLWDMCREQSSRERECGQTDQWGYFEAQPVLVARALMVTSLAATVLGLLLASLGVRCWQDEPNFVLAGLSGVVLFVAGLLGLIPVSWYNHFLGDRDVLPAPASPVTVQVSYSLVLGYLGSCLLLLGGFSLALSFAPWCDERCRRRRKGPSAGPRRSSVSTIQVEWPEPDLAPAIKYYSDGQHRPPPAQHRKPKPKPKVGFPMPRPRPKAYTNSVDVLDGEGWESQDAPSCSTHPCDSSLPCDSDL

Claudin-34 = biological target: T17, Claudin-34; assay: FACS, transfected HEK 293 cells
T17 construct: expressed on transiently transfected HEK 293 cells; the sheet prints only the number after Claudin-1

[1] = biological target: T18, CLDN 7 expressed on HEK 293 cells (UniProt O95471 1-211, limits assumed); assay: FACS, transfected HEK 293 cells
T18 construct: whole, on cells
T18 sequence (looked up): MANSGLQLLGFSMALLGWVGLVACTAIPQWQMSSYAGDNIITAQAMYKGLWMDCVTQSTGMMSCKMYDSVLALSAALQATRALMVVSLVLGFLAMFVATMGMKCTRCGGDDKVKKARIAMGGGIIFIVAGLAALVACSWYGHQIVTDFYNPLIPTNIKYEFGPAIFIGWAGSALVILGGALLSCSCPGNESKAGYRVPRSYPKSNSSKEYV

[2] = biological target: T19, human Claudin 18.2 (CLDN18.2) expressed on cells (human, UniProt P56856-2 1-261); assay: FACS, HEK 293 cells expressing CLDN18.2
T19 construct: whole, on cells; also called CLD18.2; CLD18A2

[3] = biological target: T19, human Claudin 18.2 (CLDN18.2) expressed …; assay: FACS, transfected HEK 293 cells, first 18.2 column
[4] = biological target: T19, human Claudin 18.2 (CLDN18.2) expressed …; assay: FACS, transfected HEK 293 cells, second 18.2 column
[5] = biological target: T19, human Claudin 18.2 (CLDN18.2) expressed …; assay: FACS, hybridoma supernatant of the first fusion, AF 647 anti-IgG
[6] = biological target: T19, human Claudin 18.2 (CLDN18.2) expressed …; assay: FACS, hybridoma subclone supernatant, CLDN18.2 and CLDN18.1 cells in one plot

| Binder | MFI (Claudin-1) | MFI (Claudin-2) | MFI (Claudin-3) | MFI (Claudin-4) | MFI (Claudin-5) | MFI (Claudin-8) | MFI (Claudin-9) | MFI (Claudin-10) | MFI (Claudin-11) | MFI (Claudin-12) | MFI (Claudin-14) | MFI (Claudin-16) | MFI (Claudin-17) | MFI (Claudin-19) | MFI (Claudin-22) | MFI (Claudin-23) | MFI (Claudin-34) | MFI [1] | MFI [3] | MFI [4] | other results |
| --- | --- | --- | --- | --- | --- | --- | --- | --- | --- | --- | --- | --- | --- | --- | --- | --- | --- | --- | --- | --- | --- |
| B1 | 22.8 | 21.3 | 23.8 | 22 | 20.3 | 21.4 | 21.8 | 23 | 20.9 | 20.7 | 21.7 | 24.5 | 21.8 | 21 | 29.1 | 22 | 22.3 | 22.6 | 3870 | 4050 | binding result [1]: no binding; EC50 (read off the curve) [2]: ~0.3 µg/mL |
| B2 | – | – | – | – | – | – | – | – | – | – | – | – | – | – | – | – | – | – | – | – | binding result [5]: binds |
| B3 | – | – | – | – | – | – | – | – | – | – | – | – | – | – | – | – | – | – | – | – | binding result [6]: binds |
| B4 | – | – | – | – | – | – | – | – | – | – | – | – | – | – | – | – | – | – | – | – | binding result [6]: binds |
| B5 | – | – | – | – | – | – | – | – | – | – | – | – | – | – | – | – | – | – | – | – | binding result [6]: binds |
| B6 | 23.6 | 22 | 23.3 | 21.8 | 21.2 | 20.8 | 21.7 | 22.3 | 20.3 | 21.6 | 22.4 | 21.8 | 21.9 | 21.3 | 22.2 | 21.7 | 24.1 | 23.4 | 3610 | 2810 | EC50 (read off the curve) [2]: ~0.3 µg/mL |
| B7 | 23.4 | 22.3 | 21.4 | 20.7 | 20 | 20.4 | 20.5 | 23.2 | 19.4 | 21.9 | 20.1 | 21 | 21.7 | 20.5 | 21.1 | 19.3 | 20.7 | 21.5 | 4820 | 4650 | – |
